The values below come from patent publication US20210230570.

Some results are limits rather than exact numbers.

Series [1] addresses Antithrombin III (plasma purified human AT-III, Molecular Innovations), as AT-III/UFH complex.

Factor X (FX), P00742, sequence (P00742 whole entry, looked up): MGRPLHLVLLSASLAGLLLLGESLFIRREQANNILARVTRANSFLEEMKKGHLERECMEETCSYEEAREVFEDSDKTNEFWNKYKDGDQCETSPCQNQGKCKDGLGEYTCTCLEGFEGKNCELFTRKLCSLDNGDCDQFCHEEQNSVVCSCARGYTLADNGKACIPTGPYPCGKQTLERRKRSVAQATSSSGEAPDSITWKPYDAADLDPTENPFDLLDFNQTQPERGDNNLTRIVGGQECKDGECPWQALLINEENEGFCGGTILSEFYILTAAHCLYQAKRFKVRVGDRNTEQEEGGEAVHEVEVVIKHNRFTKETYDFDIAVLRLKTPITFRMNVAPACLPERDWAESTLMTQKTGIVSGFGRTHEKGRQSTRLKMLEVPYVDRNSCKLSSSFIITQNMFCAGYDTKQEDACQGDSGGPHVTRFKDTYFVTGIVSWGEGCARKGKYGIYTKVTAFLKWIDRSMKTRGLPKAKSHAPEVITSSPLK

B1: FIXa-Y155F/K247N/N249S/N260S (protein)
chain 1: YNSGKLEEFVQGNLERECMEEKCSFEEAREVFENTERTTEFWKQYVDGDQCESNPCLNGGSCKDDINSYECWCPFGFEGKNCELDVTCNIKNGRCEQFCKNSADNKVVCSCTEGYRLAENQKSCEPAVPFPCGRVSVSQTSKLTR
chain 2: VVGGEDAKPGQFPWQVVLNGKVDAFCGGSIVNEKWIVTAAHCVETGVKITVVAGEHNIEETEHTEQNRSVIRIIPHHNYSAAINKYNHDIALLELDEPLVLNSYVTPICIADKEYTNIFLKFGSGYVSGWGRVFHKGRSALVLQYLRVPLVDRATCLRSTKFTIYNNMFCAGFHEGGRDSCQGDSGGPHVTEVEGTSFLTGIISWGEECAMKGKYGIYTKVSRYVNWIKEKTKLT
B1 displayed a K0.5-mut/K0.5-wt (against Catalyst Biosciences WT FIXa) in series [1] of 7.9. Besides, in the series with Factor X (FX), P00742, the KM (nM); Catalytic activity of FIXa variants (KM) worked out at 96.5 nM and the kcat of FX activation by FIXa in the Xase complex (FVIIIa, PC/PS vesicles, Ca2+) is 1.8 s⁻¹.

B2: FIXa-D104N/K106S/Y155F/K247N/N249S/N260S (protein)
chain 1: YNSGKLEEFVQGNLERECMEEKCSFEEAREVFENTERTTEFWKQYVDGDQCESNPCLNGGSCKDDINSYECWCPFGFEGKNCELDVTCNIKNGRCEQFCKNSANNSVVCSCTEGYRLAENQKSCEPAVPFPCGRVSVSQTSKLTR
chain 2: VVGGEDAKPGQFPWQVVLNGKVDAFCGGSIVNEKWIVTAAHCVETGVKITVVAGEHNIEETEHTEQNRSVIRIIPHHNYSAAINKYNHDIALLELDEPLVLNSYVTPICIADKEYTNIFLKFGSGYVSGWGRVFHKGRSALVLQYLRVPLVDRATCLRSTKFTIYNNMFCAGFHEGGRDSCQGDSGGPHVTEVEGTSFLTGIISWGEECAMKGKYGIYTKVSRYVNWIKEKTKLT
B2: the K0.5-mut/K0.5-wt (against Catalyst Biosciences WT FIXa) in series [1] came out at 35.8. Also, in the series with Factor X (FX), P00742, the KM (nM); Catalytic activity of FIXa variants (KM) came to 68.5 nM and the kcat of FX activation by FIXa in the Xase complex (FVIIIa, PC/PS vesicles, Ca2+) came out at 0.5 s⁻¹.

B3: FIXa-R318Y/R338E/Y345A/R403E/E410N (protein)
chain 1: YNSGKLEEFVQGNLERECMEEKCSFEEAREVFENTERTTEFWKQYVDGDQCESNPCLNGGSCKDDINSYECWCPFGFEGKNCELDVTCNIKNGRCEQFCKNSADNKVVCSCTEGYRLAENQKSCEPAVPFPCGRVSVSQTSKLTR
chain 2: VVGGEDAKPGQFPWQVVLNGKVDAFCGGSIVNEKWIVTAAHCVETGVKITVVAGEHNIEETEHTEQKRNVIRIIPHHNYNAAINKYNHDIALLELDEPLVLNSYVTPICIADKEYTNIFLKFGSGYVSGWGRVFHKGYSALVLQYLRVPLVDRATCLESTKFTIANNMFCAGFHEGGRDSCQGDSGGPHVTEVEGTSFLTGIISWGEECAMKGKYGIYTKVSEYVNWIKNKTKLT
One may read the KM as the concentration of substrate that gives half-maximal velocity. B3: the K0.5-mut/K0.5-wt (against Catalyst Biosciences WT FIXa) in series [1] is greater than 517. Besides, in the series with Factor X (FX), P00742, the KM came out at 0.0188 µM and the kcat of FX activation by FIXa in the Xase complex (FVIIIa, PC/PS vesicles, Ca2+) came out at 1.4 s⁻¹.

B4: FIXa-R318Y/R338E/T343R/N346Y/R403E/E410N (protein)
chain 1: YNSGKLEEFVQGNLERECMEEKCSFEEAREVFENTERTTEFWKQYVDGDQCESNPCLNGGSCKDDINSYECWCPFGFEGKNCELDVTCNIKNGRCEQFCKNSADNKVVCSCTEGYRLAENQKSCEPAVPFPCGRVSVSQTSKLTR
chain 2: VVGGEDAKPGQFPWQVVLNGKVDAFCGGSIVNEKWIVTAAHCVETGVKITVVAGEHNIEETEHTEQKRNVIRIIPHHNYNAAINKYNHDIALLELDEPLVLNSYVTPICIADKEYTNIFLKFGSGYVSGWGRVFHKGYSALVLQYLRVPLVDRATCLESTKFRIYYNMFCAGFHEGGRDSCQGDSGGPHVTEVEGTSFLTGIISWGEECAMKGKYGIYTKVSEYVNWIKNKTKLT
As to B4, the K0.5-mut/K0.5-wt (against Catalyst Biosciences WT FIXa) in series [1] was greater than 517. Also, in the series with Factor X (FX), P00742, the KM turned out to be 0.0158 µM and the kcat of FX activation by FIXa in the Xase complex (FVIIIa, PC/PS vesicles, Ca2+) worked out at 4.6 s⁻¹.

B5: FIXa-D104N/K106S/K247N/N249S/N260S (protein)
chain 1: YNSGKLEEFVQGNLERECMEEKCSFEEAREVFENTERTTEFWKQYVDGDQCESNPCLNGGSCKDDINSYECWCPFGFEGKNCELDVTCNIKNGRCEQFCKNSANNSVVCSCTEGYRLAENQKSCEPAVPFPCGRVSVSQTSKLTR
chain 2: VVGGEDAKPGQFPWQVVLNGKVDAFCGGSIVNEKWIVTAAHCVETGVKITVVAGEHNIEETEHTEQNRSVIRIIPHHNYSAAINKYNHDIALLELDEPLVLNSYVTPICIADKEYTNIFLKFGSGYVSGWGRVFHKGRSALVLQYLRVPLVDRATCLRSTKFTIYNNMFCAGFHEGGRDSCQGDSGGPHVTEVEGTSFLTGIISWGEECAMKGKYGIYTKVSRYVNWIKEKTKLT
As for B5, in series [1], the K0.5-mut/K0.5-wt (against Catalyst Biosciences WT FIXa) was 65.3. Besides, in the series with Factor X (FX), P00742, the KM (nM); Catalytic activity of FIXa variants (KM) was 61.2 nM and the kcat of FX activation by FIXa in the Xase complex (FVIIIa, PC/PS vesicles, Ca2+) turned out to be 0.6 s⁻¹.

B6: FIXa-R318Y/R338E/T343R/N346D/R403E/E410N (protein)
chain 1: YNSGKLEEFVQGNLERECMEEKCSFEEAREVFENTERTTEFWKQYVDGDQCESNPCLNGGSCKDDINSYECWCPFGFEGKNCELDVTCNIKNGRCEQFCKNSADNKVVCSCTEGYRLAENQKSCEPAVPFPCGRVSVSQTSKLTR
chain 2: VVGGEDAKPGQFPWQVVLNGKVDAFCGGSIVNEKWIVTAAHCVETGVKITVVAGEHNIEETEHTEQKRNVIRIIPHHNYNAAINKYNHDIALLELDEPLVLNSYVTPICIADKEYTNIFLKFGSGYVSGWGRVFHKGYSALVLQYLRVPLVDRATCLESTKFRIYDNMFCAGFHEGGRDSCQGDSGGPHVTEVEGTSFLTGIISWGEECAMKGKYGIYTKVSEYVNWIKNKTKLT
For the protein B6, the K0.5-mut/K0.5-wt (against Catalyst Biosciences WT FIXa) in series [1] was greater than 517. Also, in the series with Factor X (FX), P00742, the KM was determined as 0.067 µM and the kcat of FX activation by FIXa in the Xase complex (FVIIIa, PC/PS vesicles, Ca2+) was 5.4 s⁻¹.

B7: FIXa-R318Y/R338E/N346Y/R403E/E410N (protein)
chain 1: YNSGKLEEFVQGNLERECMEEKCSFEEAREVFENTERTTEFWKQYVDGDQCESNPCLNGGSCKDDINSYECWCPFGFEGKNCELDVTCNIKNGRCEQFCKNSADNKVVCSCTEGYRLAENQKSCEPAVPFPCGRVSVSQTSKLTR
chain 2: VVGGEDAKPGQFPWQVVLNGKVDAFCGGSIVNEKWIVTAAHCVETGVKITVVAGEHNIEETEHTEQKRNVIRIIPHHNYNAAINKYNHDIALLELDEPLVLNSYVTPICIADKEYTNIFLKFGSGYVSGWGRVFHKGYSALVLQYLRVPLVDRATCLESTKFTIYYNMFCAGFHEGGRDSCQGDSGGPHVTEVEGTSFLTGIISWGEECAMKGKYGIYTKVSEYVNWIKNKTKLT
Regarding B7, the K0.5-mut/K0.5-wt (against Catalyst Biosciences WT FIXa) in series [1] was greater than 517. Besides, in the series with Factor X (FX), P00742, the KM turned out to be 0.0281 µM and the kcat of FX activation by FIXa in the Xase complex (FVIIIa, PC/PS vesicles, Ca2+) came to 3.4 s⁻¹.

B8: FIXa-K247N/N249S/N260S/R318Y/R338E/R403E/E410N (protein)
chain 1: YNSGKLEEFVQGNLERECMEEKCSFEEAREVFENTERTTEFWKQYVDGDQCESNPCLNGGSCKDDINSYECWCPFGFEGKNCELDVTCNIKNGRCEQFCKNSADNKVVCSCTEGYRLAENQKSCEPAVPFPCGRVSVSQTSKLTR
chain 2: VVGGEDAKPGQFPWQVVLNGKVDAFCGGSIVNEKWIVTAAHCVETGVKITVVAGEHNIEETEHTEQNRSVIRIIPHHNYSAAINKYNHDIALLELDEPLVLNSYVTPICIADKEYTNIFLKFGSGYVSGWGRVFHKGYSALVLQYLRVPLVDRATCLESTKFTIYNNMFCAGFHEGGRDSCQGDSGGPHVTEVEGTSFLTGIISWGEECAMKGKYGIYTKVSEYVNWIKNKTKLT
What is called kcat/KM is the second-order rate constant that governs catalysis at low substrate concentration. With B8, the K0.5-mut/K0.5-wt (against Catalyst Biosciences WT FIXa) in series [1] was found to be 288. Besides, in the series with Factor X (FX), P00742, the KM stood at 0.0474 µM; the KM (nM); Catalytic activity of FIXa variants (KM) turned out to be 62.2 nM; the kcat of FX activation by FIXa in the Xase complex (FVIIIa, PC/PS vesicles, Ca2+) was 3.4 s⁻¹; the kcat/KM is 9.7e+07 M⁻¹ s⁻¹.
